# B1: p21 promoter p53 5' site 25 bp oligonucleotide (dsDNA)
# DNA 1: CAGGAACATGTCCCAACATGTTGAA
# DNA 2: TTCAACATGTTGGGACATGTTCCTG
# B2: p21 promoter p53 3' site (dsDNA)
# DNA 1: AGACTGGGCATGTCTGGGCA
# DNA 2: TGCCCAGACATGCCCAGTCT
# Legend:
# [1] = target: T1, p53 (full-length, Flag-tagged) (Homo sapiens, UniProt P04637 P04637:1-393); assay: EMSA; p53 with or without acetylation by p300; site described as p53 5' binding site, gel outcome not shown in the text; details: tags: Flag, expressed in Sf9 cells; label: 32P end label
# [2] = target: T1, p53 (full-length, Flag-tagged); assay: footprint; DNase I footprinting on p21 promoter as chromatin or naked DNA; described as p53 3' binding site, outcome not shown in the text; details: tags: Flag, expressed in Sf9 cells
binder,measurement,setting,value
B1,binding result,[1],binds
B2,binding result,[2],binds

# Reference: US20030228627, “Assay for p53 function in cells” (published 2003)
